# Experimental data from US20220356229A1 (published 2022).
# Experiments:
# [1] = target: Spike protein of authentic SARS-CoV-2/MT020880.1 (live virus) (SARS-CoV-2, UniProt P0DTC2 14-1273); assay: cell-based or functional assay
# [2] = target: SARS-CoV-2 full length Spike protein, wild type (SARS-CoV-2, UniProt P0DTC2 14-1208)
# [3] = target: SARS-CoV-2 Spike protein (wild type) (SARS-CoV-2, UniProt P0DTC2 14-1208); assay: SPR (Carterra LSA), mAb coupled to HC30M chip, Spike titrated; Example 4 methods
# [4] = target: SARS-CoV-2 full length Spike protein, wild type (SARS-CoV-2, UniProt P0DTC2 14-1208); remark: listed apart in the source
binder,measurement,setting,value
"anti-SARS-CoV-2 antibody 1015 (antibody, V domains shown) VH: EVQLVESGGGLVQPGGSLRLSCAASGFTFSSYWMHWVRQAPGKGLVWVSHINSDGSSTSYADSVKGRFTISRDNAKNTLYLQMNSLRAEDTAVYYCARGLRYFDLDVWGQGTTVTVSS VL: QSVLTQPPSVSEAPRQRVTISCSGSSSNIGNNAVNWYQQLPGKAPKLLIFYDDLLPSGVSDRFSGSKSGTSASLAISGLQSEDEADYYCAAWDDSLNGGVFGGGTKLTVLG","IC50 (ng/mL), immunofluorescence neutralization assay",[1],260 ng/mL
"antibody 421 (antibody, V domains shown) VH: QVQLVESGGGVVQPGRSLRLSCAASGFTFSTYAMHWVRQAPGKGLEWVAVISYDGSNKYYADSVKGRFTISRDNSKNTLYLQMNSLRAEDTAVYYCARGYGSGSYYPLYLYWGQGTLVTVSS VL: not shown","median fluorescence, fold over isotype",[2],505 fold over isotype control
"antibody 422 (antibody, V domains shown) VH: QVQLVQSGSELKKPGASVKVSCKASGYTFTSYAMNWVRQAPGQGLEWMGWINTNTGNPTYAQGFTGRFVFSLDTSVSTTYLQISSLKAEDTAVYYCARVIGVVTYYYYGMDVWGQGTTVTVSS VL: not shown","median fluorescence, fold over isotype",[2],1250 fold over isotype control
"antibody 423 (antibody, V domains shown) VH: EVQLVESGGGLIQPGGSLRISCAASGFTVRNNHMSWVRQAPGKGLEWVSVFYRGGTTYYADSVKGRFTISRDDSKNTVDLQMNSLRGEDTAVYYCARGLSVAASGYFDCWGQGTLVTVSS VL: DIQMTQSPSSVSASVGDTVTITCRANQGISSWLAWYQQVPGKAPELLIYATSTLQSGVPSRFSGSGSGTDFTLTISSLQPEDFATYYCQQANSFPFTFGPGTKVDIK","median fluorescence, fold over isotype",[2],1190 fold over isotype control
"antibody 431 (antibody, V domains shown) VH: QVQLVESGGGVVQPGRSLRLSCAASGFTFSSYAMHWVRQAPGKGLEWLAVISYDGSNKYYADSVKGRFTISRDNSKNTLYLQMNSLRAEDTAVYYCARSFRGGYYYGMDVWGQGTTVTVSS VL: DIQLTQSPSFLSASVGDRVTITCRASQGISSYLAWYQQKPGKAPKLLIYAASTLQSGVPSRFSGSGSGTEFTLTISSLQPEDFATYYCQQLNSYPLFTFGPGTKVDIK","median fluorescence, fold over isotype",[2],715 fold over isotype control
"anti-SARS-CoV-2 antibody 989 (antibody, V domains shown) VH: QVQLVQSGAEVKKPGASVKVSCKASGYTFTNYYMHWVRQAPGQGLEWMGIINPSDDNTTYAQKIQGRVIMTRDTSTSTVYMELSSLRSEDTAVYYCARAFAEWELLLDYWGQGTLVTVSS VL: not shown",Kd,[3],0.104 nM
"anti-SARS-CoV-2 antibody 1000 (antibody, V domains shown) VH: EVQLVQSGAEVKKPGESLKISCKASGYSFTIYWIGWVRQMPGKGLEWMGVIYPGDSDTRYSPSFQGQVTISADKSISTAYLQWSSLKASDTAMYYCALGYHSGSYPFNWFDPWGQGTLVTVSS VL: EIVMTQSPATLSVSPGERATLSCRASQSVSSNLAWYQQKPGQTPRLLIYGASTRATGIPARFSGSGSGTEFTLTISSLQSEDFAVYYCQQYDNLLTFGGGTKVEIK",Kd,[3],0.092 nM
"anti-SARS-CoV-2 antibody 1081 (antibody, V domains shown) VH: QITLKESGPTLVKPTQTLTLTCTFSGFSLSTSRVGVGWIRQPPGKALEWLALIYWNDGKLYSPSLKSRLTITKDTSKNQVVLTLTNMDSVDTATYFCARGQTGTPLYDAFDFWGRGTMVTVSS VL: SYVLTQPPSVSVAPGKTAGITCGGDNFETKSVSWYQHKPGQAPVLVVYGNANRPSGIPERFSASKSGNTATLTISRVEAGDEADYYCQVWDSRSFHYVVFGGGTKLTVL",Kd,[3],0.093 nM
"anti-SARS-CoV-2 antibody 1091 (antibody, V domains shown) VH: QVQLVESGGGVVQPGRSLRLSCAASGFTFSNYAMHWVRQAPGKGLEWVAVISYDGSNKYYADSVKGRFTISRDNSKNTLYLQMNSLRAEDTAVYYCARDKLLWFGELLFDMDVWGKGTTVTVSS VL: DIQMTQSPSSLSASVGDRVTITCRASQGISNYLAWFQQKPGKAPKSLIYDASSLQSGVPSKFSGSGSGTDFTLTISSLQPEDFATYYCQQYNSYPPSFGPGTKVDIK",Kd,[3],0.054 nM
"antibody 439 (antibody, V domains shown) VH: QVQLVESGGGVVQPGRSLRLSCAASGFTFSSYAMHWVRQAPGKGLEWVAVISYDGSNKYYADSVKGRFTISRDNSKNTLYLQMNSLRAEDTAVYYCARPPRGGSYYPFDPWGQGTLVTVSS VL: not shown","median fluorescence, fold over isotype",[2],227 fold over isotype control
"antibody 446 (antibody, V domains shown) VH: QVQLVESGGGVVQPGRSLRLSCAASGFTFSSYAMHWVRQAPGKGLEWVAVISYDGSNKYYADSVKGRFTISRDNSKNTLYLQMNSLRAEDTAVYYCARPNSGSYFGYFQHWGQGTLVTVSS VL: QSVLTQPPSVSGAPGQRVTISCTGSSSNIGAGYDVHWYQQLPGTAPKLLIYGNSNRPSGVPDRFSGSKSGTSASLAITGLQAEDEADYYCQSYDSSLSGFYVFGTGTKVTVL","median fluorescence, fold over isotype",[2],435 fold over isotype control
"antibody 454 (antibody, V domains shown) VH: QVQLVQSGAEVKKPGASLKVSCKASGYIFTGYYMHWVRQAPGQGLEWMGWISPNSGGTKYAQKFQGRVTMTRDTSISTAYMELSRLRSDDSAVYYCAREPYYDILTGYYTPRRYLDYWGQGTLVTVSS VL: QSALTQPASVSGSPGQSITISCTGTSSDVGDYNYVSWYQQHPGKVPKLMIYDVSHRPSGVTNRFSGSKSGNTASLTISGLRAEDEADYYCSSYTSSSTYVFGTGTKVTVL","median fluorescence, fold over isotype",[2],1090 fold over isotype control
"antibody 566 (antibody, V domains shown) VH: QVQLVQSGAEVKKPGASVKVSCKASGYTFTSYAMHWVRQAPGQRLEWMGWINAGNGNTKYSQKFQGRVTITRDTSASTAYMELSSLRSEDTAVYYCARDLGVAVTLHPADFDYWGQGTLVTVSS VL: QSVLTQPPSVSGAPGQRVTISCTGSSSNIGAGYDVHWYQQLPGTAPKLLIYDNSNRPSGVPDRFSGSKSGTSASLAITGLQAEDEADYYCQSYDSSLSAVVFGGGTKLTVL","median fluorescence intensity, fold over isotype control",[4],613 fold over isotype
"antibody 569 (antibody, V domains shown) VH: QVQLVESGGGVVQPGRSLRLSCAASGFTFSSYAMHWVRQAPGKGLEWVAVISYDGSNKYYADSVKGRFTISRDNSKNTLYLQMNSLRAEDTAVYYCARASSGGYQGPFDPWGQGTLVTVSS VL: EIVLTQSPATLSLSPGERATLSCRASQSVSSYLAWYQQKPGQAPRLLIYDASNRATGIPARFSGSGSGTDFTLTISSLEPEDFAVYYCQQRSSPFGPGTKVDIK","median fluorescence intensity, fold over isotype control",[4],478 fold over isotype
"antibody 571 (antibody, V domains shown) VH: EVQLVESGGGLVQPGGSLRLSCAASGFTFSTYWMTWVRQAPGKGLEWVANIKHDGSGKYHVDSVKGRFTISRDNAKNSLYLQMNSLRAEDTAVYYCTRDEGGWYDYWGQGTLVTVSS VL: QSALTQPASVSGSPGQSITISCTGTSSDVGSYNPVSWYQQHPGKAPKVMIYEGSKRPSGVSNRFSGSKSGNTASLTISGLQAEDEADYYCCSYARSSTFVVFGGGTKLTVL","median fluorescence intensity, fold over isotype control",[4],338 fold over isotype
"antibody 576 (antibody, V domains shown) VH: QVQLVESGGGVVQPGRSLRLSCAASGFTFSSYAMHWVRQAPGKGLEWVAVISYDGSNKYYADSVKGRFTISRDNSKNTLYLQMNSLRAEDTAVYYCAKAGGGSYYRGFDYWGQGTLVTVSS VL: DIQLTQSPSFLSASVGDRVTITCRASQGISSYLAWYQQKPGKAPKLLIYAASTLQSGVPSRFSGSGSGTEFTLTISSLQPEDFATYYCQQLNSYPTFGPGTKVDIK","median fluorescence intensity, fold over isotype control",[4],566 fold over isotype
